According to publication PMC2659767, “Tracking Membrane Protein Association in Model Membranes” (PLoS ONE, 2009):

Key:
OprM trimer, unlabeled [1] = target: T1, OprM trimer, unlabeled (Pseudomonas aeruginosa, UniProt Q51487 18-485, palmitoyl moiety (said of the protein in general)); assay: FRAPP (fluorescence recovery after fringe pattern photobleaching); as a5 (dW about 200 A, stoichiometry from free MexA intensity) but at pH 5.5; conditions: both partners purified
T1 construct: OprM, outer membrane protein of the MexA-MexB-OprM efflux pump of Pseudomonas aeruginosa; also called outer membrane protein OprM; source: expressed and purified as previously described [50]; solubilized in 1% beta-octylglucoside, then inserted into the L3 sponge phase
T1 sequence: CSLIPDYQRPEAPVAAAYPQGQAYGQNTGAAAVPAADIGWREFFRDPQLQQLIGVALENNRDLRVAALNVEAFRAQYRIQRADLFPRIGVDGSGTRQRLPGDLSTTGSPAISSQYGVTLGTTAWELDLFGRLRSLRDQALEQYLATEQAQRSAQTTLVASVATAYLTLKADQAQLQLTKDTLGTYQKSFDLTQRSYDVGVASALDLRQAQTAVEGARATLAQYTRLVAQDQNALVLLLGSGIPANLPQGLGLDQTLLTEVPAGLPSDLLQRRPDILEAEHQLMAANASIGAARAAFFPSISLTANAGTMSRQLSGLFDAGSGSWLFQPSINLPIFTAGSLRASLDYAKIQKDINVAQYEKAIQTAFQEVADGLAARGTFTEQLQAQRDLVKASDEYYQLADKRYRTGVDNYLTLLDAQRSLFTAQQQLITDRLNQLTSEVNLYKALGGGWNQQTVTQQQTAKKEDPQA

OprM trimer, unlabeled [2] = target: T1, OprM trimer, unlabeled; assay: FRAPP (fluorescence recovery after fringe pattern photobleaching); dW about 200 A, pH 7.5; OprM trimer constant at 1 uM, molar ratio r of FITC-labeled MexA to OprM trimer varied; stoichiometry from the intensity I0 of free MexA; conditions: both partners purified
[3] = target: the molecule itself; assay: FRAPP (fluorescence recovery after fringe pattern photobleaching); FITC-labeled OprM alone in the sponge phase, dW>170 A; hydrodynamic radius from the diffusion coefficient compared with crystallographic and electron microscopy data

Binder	stoichiometry N (OprM trimer, unlabeled [1]) [MexA per OprM trimer]	stoichiometry N (OprM trimer, unlabeled [2]) [MexA per OprM trimer]	stoichiometry N [3]
MexA, mature form bearing a palmitoyl moiety, FITC-labeled (natural protein, palmitoyl moiety (on the unique N-terminal cysteine); FITC label, MexA, periplasmic lipoprotein of the MexA-MexB-OprM efflux pump of Pseudomonas aeruginosa, in its mature form; Found monomeric in the sponge phase; also called FITC-labeled MexA; periplasmic protein MexA; source: solubilized in 1% beta-octylglucoside, then inserted into the L3 sponge phase) CGKSEAPPPAQTPEVGIVTLEAQTVTLNTELPGRTNAFRIAEVRPQVNGIILKRLFKEGSDVKAGQQLYQIDPATYEADYQSAQANLASTQEQAQRYKLLVADQAVSKQQYADANAAYLQSKAAVEQARINLRYTKVLSPISGRIGRSAVTEGALVTNGQANAMATVQQLDPIYVDVTQPSTALLRLRRELASGQLERAGDNAAKVSLKLEDGSQYPLEGRLEFSEVSVDEGTGSVTIRAVFPNPNNELLPGMFVHAQLQEGVKQKAILAPQQGVTRDLKGQATALVVNAQNKVELRVIKADRVIGDKWLVTEGLNAGDKIITEGLQFVQPGVEVKTVPAKNVASAQKADAAPAKTDSKG	6	2	
OprM, FITC-labeled (natural protein, FITC label; palmitoyl moiety (said of the protein in general), OprM, outer membrane protein of the MexA-MexB-OprM efflux pump of Pseudomonas aeruginosa; Same protein as m2, here labeled with FITC and measured alone; also called FITC-labeled OprM; OprM trimer; source: expressed and purified as previously described [50]; labeled with FITC; inserted into the L3 sponge phase) CSLIPDYQRPEAPVAAAYPQGQAYGQNTGAAAVPAADIGWREFFRDPQLQQLIGVALENNRDLRVAALNVEAFRAQYRIQRADLFPRIGVDGSGTRQRLPGDLSTTGSPAISSQYGVTLGTTAWELDLFGRLRSLRDQALEQYLATEQAQRSAQTTLVASVATAYLTLKADQAQLQLTKDTLGTYQKSFDLTQRSYDVGVASALDLRQAQTAVEGARATLAQYTRLVAQDQNALVLLLGSGIPANLPQGLGLDQTLLTEVPAGLPSDLLQRRPDILEAEHQLMAANASIGAARAAFFPSISLTANAGTMSRQLSGLFDAGSGSWLFQPSINLPIFTAGSLRASLDYAKIQKDINVAQYEKAIQTAFQEVADGLAARGTFTEQLQAQRDLVKASDEYYQLADKRYRTGVDNYLTLLDAQRSLFTAQQQLITDRLNQLTSEVNLYKALGGGWNQQTVTQQQTAKKEDPQA			3
